The chains are these.
B1: Retinol dehydrogenase 12 (Homo sapiens), Q96NR8 (parent)
chain: MLVTLGLLTSFFSFLYMVAPSIRKFFAGGVCRTNVQLPGKVVVITGANTGIGKETARELASRGARVYIACRDVLKGESAASEIRVDTKNSQVLVRKLDLSDTKSIRAFAEGFLAEEKQLHILINNAGVMMCPYSKTADGFETHLGVNHLGHFLLTYLLLERLKVSAPARVVNVSSVAHHIGKIPFHDLQSEKRYSRGFAYCHSKLANVLFTRELAKRLQGTGVTTYAVHPGVVRSELVRHSSLLCLLWRLFSPFVKTAREGAQTSLHCALAEGLEPLSGKYFSDCKRTWVSPRARNNKTAERLWNVSCELLGIRWE

We go through two variants from IntAct's records for PubMed 20006610.

The variants in the first assay derive from B1. As to conditions: with ubc_human UBC.
Consider T49M, for which the “effect of a mutation on the interaction” value is on record as “increasing interaction”.

Another assay covers variants of B1. As to conditions: with ubc_human UBC. The source holds these as a separate data set.
I51N: the “effect of a mutation on the interaction” value is recorded as “increasing interaction”.
